B1: CODV009 (bispecific antibody, human IgG1, kappa, L234A L235A)
heavy: EVQLVQSGSELKKPGASVKVSCKASGYTFTNYGMYWVRQAPGQGLEWMGWINTETGKPTYADDFKGRFVFSLDTSVSTAYLQISSLKAEDTAVYYCARTNYYYRSYIFYFDYWGQGTMVTVSSGEVTLRESGPALVKPTQTLTLTCTFSGFSLSTYGMGVGWIRQPPGKALEWLANIWWDDDKYYNPSLKNRLTISKDTSKNQVVLTMTNMDPVDTATYYCARIESIGTTYSFDYWGQGTMVTVSSGGASTKGPSVFPLAPSSKSTSGGTAALGCLVKDYFPEPVTVSWNSGALTSGVHTFPAVLQSSGLYSLSSVVTVPSSSLGTQTYICNVNHKPSNTKVDKKVEPKSCDKTHTCPPCPAPEAAGGPSVFLFPPKPKDTLMISRTPEVTCVVVDVSHEDPEVKFNWYVDGVEVHNAKTKPREEQYNSTYRVVSVLTVLHQDWLNGKEYKCKVSNKALPAPIEKTISKAKGQPREPQVYTLPPSREEMTKNQVSLTCLVKGFYPSDIAVEWESNGQPENNYKTTPPVLDSDGSFFLYSKLTVDKSRWQQGNVFSCSVMHEALHNAYTQKSLSLSPGK
light: EFVLTQSPGTLSLSPGERATLSCERSSGDIGDSYVSWYQQKPGQAPRLVIYADDQRPSGIPDRFSGSGSGTDFTLTISRLEPEDFAVYYCQSYDINIDIVFGGGTKVEIKGGGSGGGDTVLTQSPATLSLSPGERATLSCRASESVSTHMHWYQQKPGQAPRLLIYGASNLESGVPARFSGSGSGTDFTLTISSLEPEDFAVYFCQQSWNDPFTFGQGTKLEIKGGGSGRTVAAPSVFIFPPSDEQLKSGTASVVCLLNNFYPREAKVQWKVDNALQSGNSQESVTEQDSKDSTYSLSSTLTLSKADYEKHKVYACEVTHQGLSSPVTKSFNRGEC
notes: Anti-human VEGF-A/anti-human PDGF-BB cross-over DVD-Ig (CO-DVD-Ig); also called PR-1571821
B2: CODV008 (bispecific antibody, human IgG1, kappa, L234A L235A)
heavy: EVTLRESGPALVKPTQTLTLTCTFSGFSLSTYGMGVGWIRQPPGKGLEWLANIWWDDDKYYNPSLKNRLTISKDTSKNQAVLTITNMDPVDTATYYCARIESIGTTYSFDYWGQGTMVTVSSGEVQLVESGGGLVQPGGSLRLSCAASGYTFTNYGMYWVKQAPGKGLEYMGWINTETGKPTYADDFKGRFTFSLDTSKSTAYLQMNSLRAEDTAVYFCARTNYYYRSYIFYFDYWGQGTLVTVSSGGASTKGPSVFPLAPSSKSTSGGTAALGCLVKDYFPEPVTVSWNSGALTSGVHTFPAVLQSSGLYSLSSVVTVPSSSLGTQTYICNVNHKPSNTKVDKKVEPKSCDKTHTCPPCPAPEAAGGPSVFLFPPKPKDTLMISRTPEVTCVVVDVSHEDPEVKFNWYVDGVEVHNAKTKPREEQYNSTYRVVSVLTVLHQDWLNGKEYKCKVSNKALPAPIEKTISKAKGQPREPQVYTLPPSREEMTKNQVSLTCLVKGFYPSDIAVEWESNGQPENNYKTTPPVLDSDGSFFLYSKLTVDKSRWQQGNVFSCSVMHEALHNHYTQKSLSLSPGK
light: DTQLTQSPSSLSASVGDRVTISCRASESVSTHMHWYQQKPGKAPKLLIYGASNLESGVPSRFSGSGSGTDFTLTISSLQPEDFATYFCQQSWNDPFTFGQGTKVEIKGGGSGGGDFQLTQSPSSLSASVGDRVTITCERSSGDIGDSYVSWYQQKPGKAPKNVIYADDQRPSGVPSRFSGSGSGNSASLTISSLQPEDFATYFCQSYDINIDIVFGQGTKVEIKGGGSGRTVAAPSVFIFPPSDEQLKSGTASVVCLLNNFYPREAKVQWKVDNALQSGNSQESVTEQDSKDSTYSLSSTLTLSKADYEKHKVYACEVTHQGLSSPVTKSFNRGEC
notes: Anti-human VEGF-A/anti-human PDGF-BB cross-over DVD-Ig (CO-DVD-Ig); also called PR-1565086
B3: CODV010 (bispecific antibody, human IgG1, kappa, L234A L235A)
heavy: EVTLRESGPALVKPTQTLTLTCTFSGFSLSTYGMGVGWIRQPPGKALEWLANIWWDDDKYYNPSLKNRLTISKDTSKNQVVLTMTNMDPVDTATYYCARIESIGTTYSFDYWGQGTMVTVSSGEVQLVQSGSELKKPGASVKVSCKASGYTFTNYGMYWVRQAPGQGLEWMGWINTETGKPTYADDFKGRFVFSLDTSVSTAYLQISSLKAEDTAVYYCARTNYYYRSYIFYFDYWGQGTMVTVSSGGASTKGPSVFPLAPSSKSTSGGTAALGCLVKDYFPEPVTVSWNSGALTSGVHTFPAVLQSSGLYSLSSVVTVPSSSLGTQTYICNVNHKPSNTKVDKKVEPKSCDKTHTCPPCPAPEAAGGPSVFLFPPKPKDTLMISRTPEVTCVVVDVSHEDPEVKFNWYVDGVEVHNAKTKPREEQYNSTYRVVSVLTVLHQDWLNGKEYKCKVSNKALPAPIEKTISKAKGQPREPQVYTLPPSREEMTKNQVSLTCLVKGFYPSDIAVEWESNGQPENNYKTTPPVLDSDGSFFLYSKLTVDKSRWQQGNVFSCSVMHEALHNAYTQKSLSLSPGK
light: DTVLTQSPATLSLSPGERATLSCRASESVSTHMHWYQQKPGQAPRLLIYGASNLESGVPARFSGSGSGTDFTLTISSLEPEDFAVYFCQQSWNDPFTFGQGTKLEIKGGGSGGGEFVLTQSPGTLSLSPGERATLSCERSSGDIGDSYVSWYQQKPGQAPRLVIYADDQRPSGIPDRFSGSGSGTDFTLTISRLEPEDFAVYYCQSYDINIDIVFGGGTKVEIKGGGSGRTVAAPSVFIFPPSDEQLKSGTASVVCLLNNFYPREAKVQWKVDNALQSGNSQESVTEQDSKDSTYSLSSTLTLSKADYEKHKVYACEVTHQGLSSPVTKSFNRGEC
notes: Anti-human VEGF-A/anti-human PDGF-BB cross-over DVD-Ig (CO-DVD-Ig); also called PR-1571823

Key:
[1] = biological target: T1, Human PDGF-BB (human, UniProt P01127 82-190); experiment: SPR (Biacore), method of Example 1.1
T1 construct: also called hPDGF-BB
Method: (§1) Unreacted moieties on the biosensor surface were blocked with ethanolamine. For kinetic analysis, rate equations derived from the 1:1 Langmuir binding model were fitted simultaneously to multiple antigen injections (using global fit analysis) with the use of Scrubber 2 (BioLogic Software), Biacore Biaevaluation 4.0.1 software or Biacore T100 Evaluation software. Purified antibodies or DVD-Ig molecules were diluted in running buffer for capture across goat anti-human Fc reaction surfaces. Antibodies or DVD-Ig molecules to be captured as a ligand (1 μg/ml) were injected over reaction matrices at a flow rate of 10 μl/minute. During the assay, all measurements were referenced against the capture surface alone (i.e., with no captured antibody or DVD-Ig molecule). […] The equilibrium dissociation constant KD (M) of the reaction between antibodies and the target antigen was then calculated from the kinetic rate constants by the following formula: KD=Koff/Kₒₙ. Binding was recorded as a function of time and kinetic rate constants were calculated. In this assay, on-rates as fast as 10⁶M⁻¹s⁻¹ and off-rates as slow as 10⁻⁶ s⁻¹ could be measured.

[2] = biological target: T2, Human VEGF-A 165 (human, UniProt P15692 207-395); experiment: SPR (Biacore), method of Example 1.1
T2 construct: also called hVEGF165
Method: as §1

T2 sequence (P15692 other isoform, or with tags, fused parts or gaps limits assumed): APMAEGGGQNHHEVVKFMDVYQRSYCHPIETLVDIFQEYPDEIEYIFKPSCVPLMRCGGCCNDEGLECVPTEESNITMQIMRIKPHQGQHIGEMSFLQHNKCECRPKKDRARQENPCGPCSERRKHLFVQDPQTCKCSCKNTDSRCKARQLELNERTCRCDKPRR
T1 sequence (P01127 82-190 limits assumed): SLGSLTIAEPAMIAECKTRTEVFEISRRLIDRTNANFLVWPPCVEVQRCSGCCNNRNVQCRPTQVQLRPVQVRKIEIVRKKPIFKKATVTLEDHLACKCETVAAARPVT

Row | Binder | Kd [1] [pM] | kon [1] [M⁻¹ s⁻¹] | Kd [2] [pM] | binding result [2] | kon [2] [M⁻¹ s⁻¹]
1 | B1 | 5.6 | 3.5e+07 | 26000 |  | 
2 | B2 | 7.4 | 1.7e+07 |  | no binding | 
3 | B3 | 4 | 4.1e+07 | 6600 |  | 57000

Reference: US20170015742A1 (published 2017)
